The record followed here is the supplement of paper PMC9170038.

This series concerns MS2 coat protein. The experiment in a line: apparent KD of MS2 coat protein; designed switch direction (-1 OFF switch, 1 ON switch): -1; higher = weaker reporter binding. In outline:
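RNA switches sharing common flanks were transcribed by stalled E. coli RNA polymerase on Illumina chips. A doubling series of SNAP-549-labelled MS2 coat protein, from 0.7 or 1.5 nM to 3 µM, was applied in Tris-HCl pH 7.5 buffer with KCl, MgCl2, BSA, DTT, tRNA and Tween-20. Each step lasted 0.8–1.5 h at the bottom of the series and 10–20 min at the top. Normalised cluster fluorescence was curve-fitted, giving apparent KD as the per-design median over clusters.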

The mark [1] stands for this setting: input ligand: microRNA oligo, concentration not stated.
The mark [2] stands for this setting: Eterna round: R95, input ligand: microRNA oligo, concentration not stated.
The mark [3] stands for this setting: Eterna round: R95, input ligand: FMN 200 uM.
The mark [4] stands for this setting: Eterna round: R95, input ligand: none.

Take “GGGUGCAGGCUGAGGUCCUACAUGAGGAUCACCCAUGUGGUCCGGUGACGUGAGUCGCCGGACUUGGCUCGUCUUGU [salish99_S_TOV1_R5_011] (Eterna round: R97, puzzle: Sensor, turn-off variant 1)”: the “apparent KD of MS2 coat protein” value is, setting by setting: (input ligand: FMN 200 uM) 42.2 nM; (input ligand: none) 52.1 nM.
As to “GGGUGUGAAGGAUAUACAUGAGGAUCACCCAUGUGAGAGGAGAAUGUUGAGGAGGUUGGUAGAAGGUCAGGAGG [JR_Exclusion3_Sub010] (Eterna round: R96, puzzle: Exclusion 3)”, the “apparent KD of MS2 coat protein” value runs as follows: (input ligand: FMN 200 uM) 202 nM; under setting [1], 105 nM; (input ligand: none) 165 nM.
“GGGUGUGAAGGAUAUACAUGAGGAUCACCCAUGUGAGAGGAGAAUGUUGAGGAGGUUGGUAGAAGGUCAGGAGG [JR_Exclusion3_Sub010] (puzzle: Exclusion 3)”: the “apparent KD of MS2 coat protein” value under setting [2] came to 79.1 nM.
On to “GGGUGUGAAGGAUAUACAUGAGGAUCACCCAUGUGAGAGGAGGAGGUUGAGGAGGUUGGUAGAAGGUCAGGAGG [JR_Exclusion3_Sub011] (Eterna round: R96, puzzle: Exclusion 3)”, for which the “apparent KD of MS2 coat protein” value is, setting by setting: (input ligand: FMN 200 uM) 219 nM; under setting [1], 149 nM; (input ligand: none) 220 nM.
On to “GGGUGUGAAGGAUAUACAUGAGGAUCACCCAUGUGAGAGGAGGAGGUUGAGGAGGUUGGUAGAAGGUCAGGAGG [JR_Exclusion3_Sub011] (puzzle: Exclusion 3)”, for which, under setting [2], the “apparent KD of MS2 coat protein” value is 120 nM.
“GGUACUAACACGAAAGUGUUAGUACAAUAAGCUAGUGGAACAUGAGGAUCACCCAUGUCCUCAUUAGCUCGUCUUAU [Mat - Sensor v3 - Turn-off var 2 - D36] (puzzle: Sensor v3, turn-off variant 2)”: the “apparent KD of MS2 coat protein” value came out at 14.5 nM under setting [3], 43.8 nM under setting [2] and 15 nM under setting [4].
For “GGUACUAACACGAAAGUGUUAGUACUAUAAGCUUGUGUUACAUGAGGAUCACCCAUGUCCUCAUAGGCUCGUCUUAU [JL-sv3-2.18 mat747 mod] (puzzle: Sensor v3, turn-off variant 2)”, the “apparent KD of MS2 coat protein” value is 292 nM under setting [3], 29.9 nM under setting [2] and 252 nM under setting [4].
In the case of “GGUACUAACACGAGAGUGUUAGUACUAUAAGCUUGUGUUACAUGAGGAUCACCCAUGUCCUCAUAAGCUCGUCUUGA [Mat - Sensor v3 - Turn-off var 2 - D90] (puzzle: Sensor v3, turn-off variant 2)”, the “apparent KD of MS2 coat protein” value runs as follows: under setting [3], 33 nM; under setting [2], 974 nM; under setting [4], 36.2 nM.
In the case of “GGUACUAACACGAUAGUGUUAGUACUAUAAGCUUGUGUUACAUGAGGAUCACCCAUGUCCUCAUAAGCUCGUCUUGU [Mat - Sensor v3 - Turn-off var 2 - D89] (puzzle: Sensor v3, turn-off variant 2)”, the “apparent KD of MS2 coat protein” value is, setting by setting: under setting [3], 49.8 nM; under setting [2], 52.9 nM; under setting [4], 44.8 nM.
Regarding “GGUCAGACGGUAGGAUAUCCAUAUCGAGUGACUCUUUCAUAACAUGAGGAUCACCCAUGUCGGUGGGAGAAGGGCCGUACGGCG [salish99_ExNG02_R04_005] (Eterna round: R96, puzzle: Exclusion NG 2)”, the “apparent KD of MS2 coat protein” value is 61.5 nM (input ligand: FMN 200 uM), 29.6 nM under setting [1] and 42.7 nM (input ligand: none).
Taken in the same sequence, the figures for “GGUCAGAUGGUAGGAUAUCCAUAUCGAGUGACCCUUUCAUAACAUGAGGAUCACCCAUGUCGGUGGGAGAAGGGCCGUACGGUG [salish99_ExNG02_R04_023] (Eterna round: R96, puzzle: Exclusion NG 2)” were 39.5 nM, 41.2 nM and 48.8 nM.
“GGUCAGAUGGUAGGAUAUCCAUAUCGAGUGACCCUUUCAUAACAUGAGGAUCACCCAUGUCGGUGGGAGAAGGGCUGUACGGCG [salish99_ExNG02_R04_021] (Eterna round: R96, puzzle: Exclusion NG 2)”: the “apparent KD of MS2 coat protein” value runs as follows: (input ligand: FMN 200 uM) 34.8 nM; under setting [1], 19.1 nM; (input ligand: none) 43.3 nM.
As for “GGUCAUCAAGUCAGGAUAUCGUCAAAUCAAUCAGGCGAGAAGGGACAUGAGGAUCACCCAUGUCGACUCAUCAG [Ex4 #5] (Eterna round: R97, puzzle: Brourd's mod of Exclusion 4)”, the “apparent KD of MS2 coat protein” value is, setting by setting: (input ligand: FMN 200 uM) 123 nM; (input ligand: none) 34.3 nM.
As to “GGUCCACAUGAGGAUCACCCAUGUUAGGAUAUCUCCCGCCUCCUCACUAGAGGCGGACAGAGAAGGAACAUCAA [Raerge] (puzzle: Exclusion 1)”, the “apparent KD of MS2 coat protein” value under setting [2] was 23.2 nM.
On to “GGUCCUCCGGAGGAUAUGGAACUGGAGGUAGUACCAGAAGGCCGAACAUGAGGAUCACCCAUGUGCCCGUAAAA [Aarlean] (puzzle: Exclusion 6)”, for which the “apparent KD of MS2 coat protein” value by setting is: under setting [3], 76.8 nM; under setting [2], 17 nM; under setting [4], 18.5 nM.
As for “GGUCGGCGAGGAUAUACAUGAGGAUCACCCAUGUGAUAGAUUGCUUCGUGAGAAGUAUGUAGAAGGCGCUGACG [jl-ex3-4.04 jl mod] (Eterna round: R97, puzzle: Exclusion 3)”, the “apparent KD of MS2 coat protein” value runs as follows: (input ligand: FMN 200 uM) 320 nM; (input ligand: none) 38.7 nM.
For “GGUCGGGCAAAGGAUGCCCACAUGAGGAUCACCCAUGUACAAGACUUUAAGGUGCGUAAGCGCAUACGGCUCGUUAA [Eternabot (L1) Solution 26] (Eterna round: R97, puzzle: Sensor, turn-off variant 1)”, the “apparent KD of MS2 coat protein” value was found to be 15.9 nM (input ligand: FMN 200 uM) and 16.5 nM (input ligand: none).
Consider “GGUCGUCAAGUCAGGAUAUCGUUUGGUCGGUGUGACGAGAAGGGACAUGAGGAUCACCCAUGUCGUCUCAUCAG [Ex4 #29] (Eterna round: R97, puzzle: Brourd's mod of Exclusion 4)”, for which the “apparent KD of MS2 coat protein” value reads like this: (input ligand: FMN 200 uM) 31 nM; (input ligand: none) 30.8 nM.
Take “GGUCUACAUGAGGAUCACCCAUGUAAGGAUAUCGUCACUGGAGCCUCGGCUCCAGUGACGAGAAGGUACGUAAU [E1/12-A2] (Eterna round: R97, puzzle: Exclusion 1)”: the “apparent KD of MS2 coat protein” value was determined as 31.5 nM (input ligand: FMN 200 uM) and 34.5 nM (input ligand: none).
For the sequence “GGUCUUCAAGUCAGGAUAUCGUCUAAUCGAUCUGGCGAGAAGGGACAUGAGGAUCACCCAUGUCGUCUCAUCAG [Ex4 #16] (Eterna round: R97, puzzle: Brourd's mod of Exclusion 4)”, the “apparent KD of MS2 coat protein” value was found to be 22.7 nM (input ligand: FMN 200 uM) and 17.7 nM (input ligand: none).
In the case of “GGUGAAGCAGGAUAUGUAUCGAUAUACAUGAGGAUCACCCAUGUCAUGUAGAAACCGCAUAUAGAAGGGCUUCACC [Exclusion 5 (FMN-MS2 slide v.6)] (Eterna round: R97, puzzle: Exclusion 5)”, the “apparent KD of MS2 coat protein” value (input ligand: FMN 200 uM) was found to be 163 nM and the “apparent KD of MS2 coat protein” value (input ligand: none) came to 47.4 nM.
As to “GGUGAGAGCAAGGAUAUGCAGAAGUGAGAAAGUGCAGAAGGUGCUACAUGAGGAUCACCCAUGUUGGAUGUGUU [JR_E6_Sub015] (puzzle: Exclusion 6)”, the “apparent KD of MS2 coat protein” value under setting [2] is 34.2 nM.
For “GGUGCGUAUGUGAGGAUAUGCUGGUCCUUGGAUCGGCAGAAGGUACAUGAGGAUCACCCAUGUGGUGUCGUUCU [salish99_Bmod_ex4_105] (puzzle: Brourd's mod of Exclusion 4)”, the “apparent KD of MS2 coat protein” value under setting [2] turned out to be 232 nM.
For the sequence “GGUGCGUCUGUGAGGAUAUGCUGGUCCUUGGAUCAGCAGAAGGCACAUGAGGAUCACCCAUGUGGUGUCGUACC [salish99_Bmod_Ex4_028] (puzzle: Brourd's mod of Exclusion 4)”, the “apparent KD of MS2 coat protein” value under setting [2] turned out to be 143 nM.
Regarding “GGUGCUGGCGCGUCGGUGUUGGUGCAAUAAGCUUGUGAAACAUGAGGAUCACCCAUGUCCUCAUAAGCUCGUCUUAU [salish99_TOv2_r2_086] (Eterna round: R96, puzzle: Sensor v3, turn-off variant 2)”, the “apparent KD of MS2 coat protein” value stood at 13.7 nM (input ligand: FMN 200 uM), 334 nM under setting [1] and 17.7 nM (input ligand: none).
On to “GGUGCUGGCGCGUCGGUGUUGGUGCAAUAAGCUUGUGAAACAUGAGGAUCACCCAUGUCCUCAUAAGCUCGUCUUAU [salish99_TOv2_r2_086] (puzzle: Sensor v3, turn-off variant 2)”, for which the “apparent KD of MS2 coat protein” value came to 17.7 nM under setting [3], 529 nM under setting [2] and 15.9 nM under setting [4].
For “GGUGGACAUGAGGAUCACCCAUGUGAGGAUAUCGGCCGGCUAGUGGCGGCUGGCUUCACGAGAAGGCGCAUAGU [Exclusion 1 V78] (puzzle: Exclusion 1)”, under setting [2], the “apparent KD of MS2 coat protein” value is 65.4 nM.
As to “GGUGGACAUGAGGAUCACCCAUGUGAGGAUAUCGGCCGGUUCGUGGUGGCUGGCCUCUCGAGAAGGCGCAUAGU [Exclusion 1 V73] (puzzle: Exclusion 1)”, the “apparent KD of MS2 coat protein” value under setting [2] is 44.1 nM.
Turning to “GGUGGACAUGAGGAUCACCCAUGUGAGGAUAUCGGCCGGUUCGUGGUGGCUGGCGUCUCGAGAAGGCGCAUAGU [Exclusion 1 V70] (puzzle: Exclusion 1)”, the “apparent KD of MS2 coat protein” value under setting [2] came out at 28.6 nM.
“GGUGGACAUGAGGAUCACCCAUGUGAGGAUAUCGGCUAUCUACUCGCUGUCGGUUGCUCGAGAAGGCACAUUGU [Exclusion 1 V93] (puzzle: Exclusion 1)”: the “apparent KD of MS2 coat protein” value under setting [2] worked out at 151 nM.
Still for that read-out and setting: to “GGUGGACAUGAGGAUCACCCAUGUGAGGAUAUCGGCUGGCUAGUGGCUGACGGCUGCUCGAGAAGGCGCAUUGU [Exclusion 1 V86] (puzzle: Exclusion 1)” belongs 54.7 nM.
Take “GGUGUGAGGCAGGAUAUGCUAUAUGUUAGUAAUGCAGAAGGGUCUACAUGAGGAUCACCCAUGUGUGCGGUAGA [Ex6 #4] (Eterna round: R97, puzzle: Exclusion 6)”: the “apparent KD of MS2 coat protein” value reads like this: (input ligand: FMN 200 uM) 345 nM; (input ligand: none) 139 nM.
